Reference: US20230136252A1 (NANJING LEGEND BIOTECH, published 2023)

T1: cynomolgus monkey GPC2 on cells (HEK293T/cynoGPC2) (Cynomolgus monkey (Macaca fascicularis), UniProt A0A2K5X5G1 24-551)
T1 construct: whole, on cells; also called Cynomolgus monkey (Macaca fascicularis) GPC2
T1 sequence: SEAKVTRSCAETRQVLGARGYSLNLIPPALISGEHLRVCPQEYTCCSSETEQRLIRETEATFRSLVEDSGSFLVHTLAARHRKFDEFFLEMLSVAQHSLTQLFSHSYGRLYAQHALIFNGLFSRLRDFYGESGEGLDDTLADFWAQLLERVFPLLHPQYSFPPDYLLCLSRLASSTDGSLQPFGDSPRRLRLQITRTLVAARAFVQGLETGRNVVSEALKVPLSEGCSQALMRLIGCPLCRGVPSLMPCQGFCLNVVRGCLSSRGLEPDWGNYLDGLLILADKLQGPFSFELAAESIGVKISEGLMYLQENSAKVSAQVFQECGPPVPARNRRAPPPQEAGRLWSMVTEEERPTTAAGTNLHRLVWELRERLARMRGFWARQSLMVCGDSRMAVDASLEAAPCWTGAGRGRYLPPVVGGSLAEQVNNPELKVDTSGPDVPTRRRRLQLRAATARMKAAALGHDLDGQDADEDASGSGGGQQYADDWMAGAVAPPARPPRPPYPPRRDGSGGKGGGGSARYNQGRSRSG

T2: human GPC2 on cells (SH-SY5Y, IMR-32, HEK293T/hGPC2) (human, UniProt Q8N158 24-554)
T2 construct: whole, on cells; GPI-anchored proteoglycan on the cell surface; also called cell-surface human GPC2; GPC2 positive cells
T2 sequence (looked up): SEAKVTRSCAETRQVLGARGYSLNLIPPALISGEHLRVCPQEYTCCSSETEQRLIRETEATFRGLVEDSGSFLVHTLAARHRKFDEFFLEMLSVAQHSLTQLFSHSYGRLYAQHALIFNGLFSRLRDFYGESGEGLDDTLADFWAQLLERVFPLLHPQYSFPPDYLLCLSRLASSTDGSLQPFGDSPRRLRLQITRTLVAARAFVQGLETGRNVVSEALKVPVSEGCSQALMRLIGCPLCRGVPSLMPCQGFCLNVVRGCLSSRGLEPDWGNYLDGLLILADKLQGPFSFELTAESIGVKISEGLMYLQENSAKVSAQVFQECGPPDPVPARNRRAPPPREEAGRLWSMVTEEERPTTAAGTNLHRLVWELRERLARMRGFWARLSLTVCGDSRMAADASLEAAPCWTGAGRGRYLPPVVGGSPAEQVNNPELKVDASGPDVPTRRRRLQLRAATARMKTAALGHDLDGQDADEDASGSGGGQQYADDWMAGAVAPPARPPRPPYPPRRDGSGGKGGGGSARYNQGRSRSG

T3: recombinant human GPC2-His protein (human, UniProt Q8N158 24-554, limits assumed)
T3 construct: Bought protein; The SPR paragraph gives no catalogue number for GPC2-His; also called recombinant Human Glypican 2 Protein; recombinant human GPC2 protein; not shown: His tag
T3 sequence (looked up): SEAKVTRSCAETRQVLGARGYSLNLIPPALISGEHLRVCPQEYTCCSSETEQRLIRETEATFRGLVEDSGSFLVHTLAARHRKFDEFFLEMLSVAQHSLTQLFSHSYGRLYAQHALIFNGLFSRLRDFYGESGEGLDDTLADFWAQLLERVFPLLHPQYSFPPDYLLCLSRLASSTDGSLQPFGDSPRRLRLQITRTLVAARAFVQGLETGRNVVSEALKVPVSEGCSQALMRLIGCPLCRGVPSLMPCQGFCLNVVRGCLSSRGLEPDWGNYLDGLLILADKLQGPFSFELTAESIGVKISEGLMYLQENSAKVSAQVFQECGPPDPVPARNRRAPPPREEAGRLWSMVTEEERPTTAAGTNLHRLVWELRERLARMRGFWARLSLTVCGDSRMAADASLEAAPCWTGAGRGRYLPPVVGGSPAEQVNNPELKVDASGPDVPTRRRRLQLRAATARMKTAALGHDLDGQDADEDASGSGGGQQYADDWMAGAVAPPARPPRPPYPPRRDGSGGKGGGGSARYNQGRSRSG

T4: recombinant human GPC4-Fc (human, UniProt O75487 19-529, limits assumed)
T4 construct: Bought protein; also called RD System Cat #9195-GP; not shown: Fc
T4 sequence (looked up): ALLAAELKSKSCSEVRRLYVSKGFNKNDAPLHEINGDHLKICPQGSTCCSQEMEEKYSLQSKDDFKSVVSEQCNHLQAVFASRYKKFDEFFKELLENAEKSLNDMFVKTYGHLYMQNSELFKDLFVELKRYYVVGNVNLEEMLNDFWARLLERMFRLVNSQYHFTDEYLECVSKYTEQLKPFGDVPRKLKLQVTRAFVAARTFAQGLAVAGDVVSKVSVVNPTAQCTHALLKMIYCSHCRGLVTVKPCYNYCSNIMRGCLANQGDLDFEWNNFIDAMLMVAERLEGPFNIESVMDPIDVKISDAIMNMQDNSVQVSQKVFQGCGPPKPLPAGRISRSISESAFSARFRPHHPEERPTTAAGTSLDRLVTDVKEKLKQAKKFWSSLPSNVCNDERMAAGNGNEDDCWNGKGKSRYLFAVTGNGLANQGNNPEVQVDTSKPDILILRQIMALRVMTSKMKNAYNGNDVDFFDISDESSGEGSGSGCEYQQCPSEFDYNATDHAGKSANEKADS


What was measured:
[1] = target: T1, cynomolgus monkey GPC2 on cells …; assay: flow cytometry on HEK293T/cynoGPC2 cells, VHH-His detected with anti-His tag antibody (iFluor 647), median fluorescence intensity, four-parameter fit
Description: (§1) Binding affinities of humanized VHH proteins AS70950VH6, AS71529VH6, AS72669VH6 and AS71529VH6-AS70950VH6 anti-GPC2 VHH-HIS proteins to human GPC2 expressing cells (SH-SY5Y and HEK293T/hGPC2) and cynomolgus monkey GPC2 expressing cell (HEK293T/cynoGPC2) were determined using flow cytometry. Briefly, serially diluted anti-GPC2 VHH-HIS proteins were incubated with 2×10⁵ target cells at 4° C. for 30 mins. After washing, cells were further labelled with THE™ His tag Antibody (iFluor 647) (Genescript, #A01802) at 4° C. for 30 mins. Fluorescence intensity was measured by flow cytometry. A four parameters variable slope curve was fitted to each group using GraphPad Prism for Windows Version 6.02. As shown in FIG. 4A-FIG. 4C, exemplary AS70950VH6, AS71529VH6, AS72669VH6 and AS71529VH6-AS70950VH6 specifically bind to SH-SY5Y, HEK293T/hGPC2 and HEK293T/cynoGPC2 in a dose-dependent manner.

[2] = target: T2, human GPC2 on cells (SH-SY5Y, IMR-32, …); assay: flow cytometry on SH-SY5Y cells, VHH-His detected with anti-His tag antibody (iFluor 647), median fluorescence intensity, four-parameter fit
Description: as §1

[3] = target: T2, human GPC2 on cells (SH-SY5Y, IMR-32, …); assay: flow cytometry on HEK293T/hGPC2 cells, VHH-His detected with anti-His tag antibody (iFluor 647), median fluorescence intensity, four-parameter fit
Description: as §1

[4] = target: T3, recombinant human GPC2-His protein; assay: SPR, Biacore T200, GPC2-His amine-coupled to CM5 chip, VHH-hIgG1Fc as analyte, 1:1 model
Description: Each of the exemplary anti-GPC2 VHH sequences was cloned into a vector comprising a human IgG1Fc fragment (hlgG1Fc) sequence to facilitate recombinant expression of anti-GPC2 VHH-hlgG1Fc. Recombinant proteins were obtained and purified for SPR assays. The affinity of each anti-GPC2 VHH-hIgG1Fc for GPC2 was determined by SPR using a BIACORE® T200 analytical system (GE Healthcare). Briefly, recombinant human GPC2-His protein was covalently coupled to a CM5(s) sensor chip using an amine coupling kit. Exemplary VHH-hIgG1Fc proteins were serially diluted in running buffer (10 mM HEPES, 150 mM NaCl, 3 mM EDTA, 0.05% Tween-20, pH 7.4) and injected over the chip cell at a flowrate of 100 μL/min for 100 seconds followed by buffer-only injection for 300 seconds to allow for antibody dissociation. The dissociation […] (KD) were determined using the BIACORE® T200 evaluation software version 3.0 (Langmuir binding, local fit, 1:1 binding model).

[5] = target: T4, recombinant human GPC4-Fc; assay: ELISA on GPC4 coated plate; by paragraph 266 the VHH-His form with anti-His tag secondary was used on GPC4-Fc; the sheet's title prints the hIgG1Fc form and its legend 'rhGPC4-his'
Description: To evaluate the specificity of humanized anti-GPC2 VHH5 to recombinant human GPC2 protein, an ELISA-based binding assay was conducted to determine the differential target proteins binding of anti-GPC2 VHH5. Briefly, microplates were coated with 2 μg/mL recombinant human GPC1-His (RD System, Cat #4519-GP), GPC2-His (RD System, Cat #2304-GP), GPC3-His (ACRO, Cat #GP3-H5223), GPC4-Fc (RD System, Cat #9195-GP), GPC5-His (RD System, Cat #2607-G5/CF), GPC6-His (RD System, Cat #2845-GP) or recombinant mouse GPC2-His (RD System, Cat #2355-GP) proteins. Recombinant human protein coated plates were blocked with skim milk. Serially diluted humanized VHH-hIgG1Fc recombinant antibodies were added to each well of the plates and incubated at 4° C. for 1.5 h. Samples were further labelled with HRP-conjugated goat anti human IgG (H+L) secondary antibody (Genescript, Cat #A00166-1) and signal was developed with 3,3′,5,5′-Tetramethylbenzidine (TMB) substrate according to manufacturer's instruction. For the GPC4, VHH-His recombinant antibodies and anti-His tag secondary antibody (Genescript, Cat #A00612) were added to the GPC4-Fc coated plates instead. Optic density at 450 nm was measured by plate reader.

Row | Binder | EC50 (read off the curve) [1] | EC50 (read off the curve) [2] | EC50 (read off the curve) [3] | Kd [4] | koff [4] | kon [4] | binding result [5]
1 | AS72669VH6 anti-GPC2 VHH-His protein (VHH) VHH: QVQLVESGGGVVQPGGSLRLSCAASRFTYSSYCMGWIRQAPGKGREGVAIFYTGGGRTYYADSVKGRFTISQDNSKNTLYLQMNSLRAEDTAVYYCVAGFYCSGGYWEGDFGYWGQGTLVTVSS | ~5 nM | ~2 nM | ~4 nM | – | – | – | –
2 | AS72669VH6-hIgG1Fc (Fc fusion, also called anti-GPC2 VHH-hIgG1Fc; not shown: human IgG1 Fc fragment (hIgG1Fc)) QVQLVESGGGVVQPGGSLRLSCAASRFTYSSYCMGWIRQAPGKGREGVAIFYTGGGRTYYADSVKGRFTISQDNSKNTLYLQMNSLRAEDTAVYYCVAGFYCSGGYWEGDFGYWGQGTLVTVSS | – | – | – | 0.15 nM | 7.7e-05 s⁻¹ | 520000 M⁻¹ s⁻¹ | –
3 | AS79236VH6 VHH-His recombinant antibody (VHH, the result sentence still names the hIgG1Fc form) VHH: EVQLVESGGGLVQPGGSLRLSCAVSGYTYSSYCMAWFRQAPGKGLEGVASIDAGGRTTYVDSVKGRFTISKDNAKNSLYLQMNSLRAEDTAMYYCAVDVRTRCGGTWDGEAVYFPYWGQGTLVTVSS | – | – | – | – | – | – | no binding (tested: about 300 nM)
4 | AS70950VH6 anti-GPC2 VHH-His protein (VHH) VHH: EVQLVESGGGLVQPGGSLRLSCAISEFTYKNTCVGWFRQAPGKGREGVAAIDSDGNTNYVDSVKGRFTISQDNSKNTVYLQMNSLRAEDTAMYYCAAGAYCGRLLLWIGNYAYWGQGTLVTVSS | ~5 nM | ~3 nM | ~2 nM | – | – | – | no binding (tested: about 300 nM)
5 | AS71529VH6-AS70950VH6 anti-GPC2 VHH-His protein (VHH, Tandem of two different anti-GPC2 VHH domains) EVQLVESGGGLVQPGGSLRLSCAVSEYRYSSRYCMGWFRQAPGKGREGVAAIDSNGSADYVDSVKGRFTISKDNSKNTLYLQMNSLRAEDTAMYYCAADHLAYDCYSGATSVFRYWGQGTLVTVSSGGGGSGGGGSGGGGSEVQLVESGGGLVQPGGSLRLSCAISEFTYKNTCVGWFRQAPGKGREGVAAIDSDGNTNYVDSVKGRFTISQDNSKNTVYLQMNSLRAEDTAMYYCAAGAYCGRLLLWIGNYAYWGQGTLVTVSSHHHHHH | ~5 nM | ~3 nM | ~5 nM | – | – | – | –
6 | AS78117VH4 VHH-His recombinant antibody (VHH, the result sentence still names the hIgG1Fc form) VHH: EVQLVESGGGLVQPGGSLRLSCIVSRYTYATYSMAWFRQAPGKGLEGVSGLDSVGATGYAESVKGRFTISRDNSKNTLYLQMNSLRAEDTAVYYCVVDPASAKVTYGSWSTPSYAYWGQGTLVTVSS | – | – | – | – | – | – | no binding (tested: about 300 nM)
7 | AS71529VH6 anti-GPC2 VHH-His protein (VHH) VHH: EVQLVESGGGLVQPGGSLRLSCAVSEYRYSSRYCMGWFRQAPGKGREGVAAIDSNGSADYVDSVKGRFTISKDNSKNTLYLQMNSLRAEDTAMYYCAADHLAYDCYSGATSVFRYWGQGTLVTVSS | – | ~100 nM | – | – | – | – | –
8 | AS71529VH6-hIgG1Fc (Fc fusion, also called anti-GPC2 VHH-hIgG1Fc; not shown: human IgG1 Fc fragment (hIgG1Fc)) EVQLVESGGGLVQPGGSLRLSCAVSEYRYSSRYCMGWFRQAPGKGREGVAAIDSNGSADYVDSVKGRFTISKDNSKNTLYLQMNSLRAEDTAMYYCAADHLAYDCYSGATSVFRYWGQGTLVTVSS | – | – | – | 5.1 nM | 0.0044 s⁻¹ | 850000 M⁻¹ s⁻¹ | –
9 | AS71529VH6-AS70950VH6-hIgG1Fc (Fc fusion, Two different anti-GPC2 VHH domains in tandem, fused to a human IgG1Fc fragment; also called tandem anti-GPC2 VHH-hIgG1Fc; not shown: human IgG1 Fc fragment (hIgG1Fc)) EVQLVESGGGLVQPGGSLRLSCAVSEYRYSSRYCMGWFRQAPGKGREGVAAIDSNGSADYVDSVKGRFTISKDNSKNTLYLQMNSLRAEDTAMYYCAADHLAYDCYSGATSVFRYWGQGTLVTVSSGGGGSGGGGSGGGGSEVQLVESGGGLVQPGGSLRLSCAISEFTYKNTCVGWFRQAPGKGREGVAAIDSDGNTNYVDSVKGRFTISQDNSKNTVYLQMNSLRAEDTAMYYCAAGAYCGRLLLWIGNYAYWGQGTLVTVSS | – | – | – | 0.19 nM | 6.1e-05 s⁻¹ | 320000 M⁻¹ s⁻¹ | –
